Source: article PMC11852808

Conditions: acetylation at K3

With protein VII: K3Q acetyl mimic the localisation_or_trafficking was “no change”.
